Experimental data reported in patent publication US20260297135 (published 2026).

T1: integrin αvβ6 (human, UniProt P06756)
T1 chain 1: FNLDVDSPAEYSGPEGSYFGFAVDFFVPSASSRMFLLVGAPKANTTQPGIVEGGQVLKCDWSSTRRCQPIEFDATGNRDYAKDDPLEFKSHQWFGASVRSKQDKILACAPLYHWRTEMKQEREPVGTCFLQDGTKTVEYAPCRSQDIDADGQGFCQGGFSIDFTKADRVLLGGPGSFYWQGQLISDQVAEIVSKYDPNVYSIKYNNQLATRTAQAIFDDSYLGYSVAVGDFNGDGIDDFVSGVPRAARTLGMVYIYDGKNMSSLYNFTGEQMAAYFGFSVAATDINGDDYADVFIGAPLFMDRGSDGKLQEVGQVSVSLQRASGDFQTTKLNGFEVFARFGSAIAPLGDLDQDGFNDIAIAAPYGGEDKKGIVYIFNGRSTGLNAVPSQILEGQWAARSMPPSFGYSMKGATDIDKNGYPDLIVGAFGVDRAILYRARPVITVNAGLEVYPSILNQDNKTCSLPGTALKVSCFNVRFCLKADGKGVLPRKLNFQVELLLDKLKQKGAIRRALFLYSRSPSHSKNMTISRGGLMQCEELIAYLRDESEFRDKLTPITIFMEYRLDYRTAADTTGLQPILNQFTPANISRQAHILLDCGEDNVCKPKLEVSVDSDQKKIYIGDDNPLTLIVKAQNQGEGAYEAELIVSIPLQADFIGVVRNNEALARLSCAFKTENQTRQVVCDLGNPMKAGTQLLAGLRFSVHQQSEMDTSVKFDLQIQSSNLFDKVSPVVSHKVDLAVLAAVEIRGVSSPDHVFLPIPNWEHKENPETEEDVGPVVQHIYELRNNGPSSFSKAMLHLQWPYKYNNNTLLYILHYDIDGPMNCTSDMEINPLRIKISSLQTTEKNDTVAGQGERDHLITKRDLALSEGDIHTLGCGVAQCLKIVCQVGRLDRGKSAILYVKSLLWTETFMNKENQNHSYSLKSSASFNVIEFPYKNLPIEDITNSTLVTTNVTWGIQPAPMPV
T1 chain 2: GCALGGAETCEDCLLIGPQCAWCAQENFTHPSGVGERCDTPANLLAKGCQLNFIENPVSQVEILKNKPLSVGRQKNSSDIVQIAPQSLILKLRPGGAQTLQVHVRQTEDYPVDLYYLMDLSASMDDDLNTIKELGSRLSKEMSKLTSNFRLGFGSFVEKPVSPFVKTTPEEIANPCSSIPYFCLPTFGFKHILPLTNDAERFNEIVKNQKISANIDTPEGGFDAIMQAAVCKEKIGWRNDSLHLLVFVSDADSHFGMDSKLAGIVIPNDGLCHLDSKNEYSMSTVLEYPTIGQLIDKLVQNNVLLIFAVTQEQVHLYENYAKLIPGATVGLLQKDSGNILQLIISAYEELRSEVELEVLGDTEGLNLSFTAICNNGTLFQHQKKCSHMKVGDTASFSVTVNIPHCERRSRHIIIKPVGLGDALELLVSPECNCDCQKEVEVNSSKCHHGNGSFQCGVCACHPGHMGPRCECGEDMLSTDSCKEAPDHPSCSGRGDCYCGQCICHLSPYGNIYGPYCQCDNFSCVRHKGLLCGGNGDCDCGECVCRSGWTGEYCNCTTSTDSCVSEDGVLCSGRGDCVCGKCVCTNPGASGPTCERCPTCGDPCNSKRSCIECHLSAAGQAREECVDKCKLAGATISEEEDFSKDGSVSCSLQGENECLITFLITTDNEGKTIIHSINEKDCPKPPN

T2: integrin αvβ8 (human, UniProt P06756)
T2 chain 1: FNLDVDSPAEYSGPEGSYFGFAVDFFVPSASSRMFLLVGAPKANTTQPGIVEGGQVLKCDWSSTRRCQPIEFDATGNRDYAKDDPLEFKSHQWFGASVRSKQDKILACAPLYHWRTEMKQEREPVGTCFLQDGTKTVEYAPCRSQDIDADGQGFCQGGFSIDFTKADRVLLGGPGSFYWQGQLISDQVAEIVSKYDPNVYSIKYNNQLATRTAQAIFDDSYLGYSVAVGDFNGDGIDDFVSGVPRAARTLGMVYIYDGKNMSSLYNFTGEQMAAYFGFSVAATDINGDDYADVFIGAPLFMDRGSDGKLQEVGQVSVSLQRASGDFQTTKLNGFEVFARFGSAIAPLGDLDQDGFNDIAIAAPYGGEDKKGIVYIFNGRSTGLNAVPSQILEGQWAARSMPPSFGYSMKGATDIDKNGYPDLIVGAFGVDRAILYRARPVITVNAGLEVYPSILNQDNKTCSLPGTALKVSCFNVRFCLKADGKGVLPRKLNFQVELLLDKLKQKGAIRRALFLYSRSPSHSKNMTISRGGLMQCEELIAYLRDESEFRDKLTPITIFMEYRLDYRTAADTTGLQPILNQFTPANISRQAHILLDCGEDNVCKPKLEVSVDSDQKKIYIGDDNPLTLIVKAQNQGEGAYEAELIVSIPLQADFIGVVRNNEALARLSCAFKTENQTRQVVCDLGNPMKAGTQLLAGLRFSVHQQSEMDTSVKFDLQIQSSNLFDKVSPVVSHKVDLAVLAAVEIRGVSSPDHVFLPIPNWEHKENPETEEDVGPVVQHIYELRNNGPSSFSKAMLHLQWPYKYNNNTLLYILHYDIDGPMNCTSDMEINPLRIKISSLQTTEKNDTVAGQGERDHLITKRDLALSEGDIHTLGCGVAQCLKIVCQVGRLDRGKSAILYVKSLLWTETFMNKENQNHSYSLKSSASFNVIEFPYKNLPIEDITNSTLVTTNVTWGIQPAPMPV
T2 chain 2: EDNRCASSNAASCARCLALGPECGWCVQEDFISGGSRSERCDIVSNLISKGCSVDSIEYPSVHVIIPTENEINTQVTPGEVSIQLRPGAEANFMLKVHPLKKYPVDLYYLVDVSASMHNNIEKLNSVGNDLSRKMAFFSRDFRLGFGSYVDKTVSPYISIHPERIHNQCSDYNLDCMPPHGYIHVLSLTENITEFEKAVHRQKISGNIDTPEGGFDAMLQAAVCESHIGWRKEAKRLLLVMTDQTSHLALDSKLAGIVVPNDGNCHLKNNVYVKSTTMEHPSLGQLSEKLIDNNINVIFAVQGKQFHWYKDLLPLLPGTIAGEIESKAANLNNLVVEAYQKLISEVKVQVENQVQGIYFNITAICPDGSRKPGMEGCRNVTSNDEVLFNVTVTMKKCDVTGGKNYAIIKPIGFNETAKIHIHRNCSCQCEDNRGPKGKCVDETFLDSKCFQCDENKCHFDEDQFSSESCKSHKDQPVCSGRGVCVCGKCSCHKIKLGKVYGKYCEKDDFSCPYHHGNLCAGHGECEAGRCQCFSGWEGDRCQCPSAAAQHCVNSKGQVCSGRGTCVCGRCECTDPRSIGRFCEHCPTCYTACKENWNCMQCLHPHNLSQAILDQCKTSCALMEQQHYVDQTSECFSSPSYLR


Legend:
integrin αvβ6 [1] = target: T1, integrin αvβ6; test: BLI, at 500 nM
integrin αvβ8 [2] = target: T2, integrin αvβ8; test: BLI
integrin αvβ8 [3] = target: T2, integrin αvβ8; test: competition, hLAP1
integrin αvβ6 [4] = target: T1, integrin αvβ6; test: competition, hLAP1
integrin αvβ6 [5] = target: T1, integrin αvβ6; test: BLI

binding result (integrin αvβ6 [1])	Kd (integrin αvβ8 [2]) [nM]	IC50 (integrin αvβ8 [3]) [nM]	binding result (integrin αvβ6 [4])	Kd (integrin αvβ6 [5]) [nM]	Binder
no binding	0.5	–	–	–	B8_BP-LATY (avb8_3_LATY) (designed binder) TKCVVRFNFRGDLATYALKAVKDHLKKEGPHWNITTHNDDEVYLVVRGIHESDAKRIAKWVESTIPGISVETQCD
–	1.9	2.68	no binding	–	B8_BP_dslf (avb8_3) (designed binder) TKCVVRFNFRGDMAVYALKAVKDHLKKEGPHWNITTHNDDEVYLVVRGIHESDAKRIAKWVESTIPGISVETQCD
–	–	–	–	1.13	avb8_12 (LATI) (designed binder) TKCVVRFNFRGDLATIALKAVKDHLKKEGPHWNITTHNDDEVYLVVRGIHESDAKRIAKWVESTIPGISVETQCD
